Laboratory results published in the supplement of paper PMC11908140.

B1: library; numbered along this chain (parent)
chain: MRKPRAAVGSGHRKQAASQEGRQKHAKNNSQAKPSACDGLARQPEEVVLQASVSSYHLFRDVAEVTAFRGSLLSWYDQEKRDLPWRRRAEDEMDLDRRAYAVWVSEVMLQQTQVATVINYYTGWMQKWPTLQDLASASLEEVNQLWAGLGYYSRGRRLQEGARKVVEELGGHMPRTAETLQQLLPGVGRYTAGAIASIAFGQATGVVDGNVARVLCRVRAIGADPSSTLVSQQLWGLAQQLVDPARPGDFNQAAMELGATVCTPQRPLCSQCPVESLCRARQRVEQEQLLASGSLSGSPDVEECAPNTGQCHLCLPPSEPWDQTLGVVNFPRKASRKPPREESSATCVLEQPGALGAQILLVQRPNSGLLAGLWEFPSVTWEPSEQLQRKALLQELQRWAGPLPATHLRHLGEVVHTFSHIKLTYQVYGLALEGQTPVTTVPPGARWLTQEEFHTAAVSTAMKKVFRVYQGQQPGTCMGSKRSQVSSPCSRKKPRMGQQVLDNFFRSHISTDAHSLNSAAQ

Variants of: B1
Experiment: 8OG:A repair function score (normalized; synonymous = 0, nonsense = -1) (normalized log-likelihood score); higher = more repair activity (WT-like)
Conditions: with 8OG:A DNA repair reporter (GFP) in HEK-293 MUTYH KO cells
How it was run: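 Lentiviral MUTYH cDNA NNN codon-scan libraries were expressed in MUTYH knockout HEK-293 cells with 10 pg/ml doxycycline, and the cells received an 8OG:A GFP repair reporter together with mCherry. At 72 h, viable mCherry+ cells went into GFP+ (repair) or GFP− bins, three replicates per tile, before tile amplicons were sequenced. A repair function score was then built from per-tile Rosace fitness scores, anchored on the synonymous and nonsense distributions. Synonymous medians sat at 0 and nonsense at -1, and variants under 300 counts per million at the start were left out.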
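Also: cells sorted at 72 h after reporter transfection.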

Row | Variant | 8OG:A repair function score
1 | MRKPRAAVGSGHRKQAASQEGRQKHAKNNSQAKPSACDGLARQPEEVVLQASVSSYHLFRDVAEVTAFRGSLLSWYDQEKRDLPWRRRAEDEMDLDRRAYAVWVSEVMLQQTQVATVINYYTGWMQKWPTLQDLASASLEEVNQLWAGLGYYSRGRRLQEGARKVVEELGGHMPRTAETLQQLLPGVGRYTAGAIASIAFGQATGVVDGNVARVLCRVRAIGADPSSTLVSQQLWGLAQQLVDPARPVDFNQAAMELGATVCTPQRPLCSQCPVESLCRARQRVEQEQLLASGSLSGSPDVEECAPNTGQCHLCLPPSEPWDQTLGVVNFPRKASRKPPREESSATCVLEQPGALGAQILLVQRPNSGLLAGLWEFPSVTWEPSEQLQRKALLQELQRWAGPLPATHLRHLGEVVHTFSHIKLTYQVYGLALEGQTPVTTVPPGARWLTQEEFHTAAVSTAMKKVFRVYQGQQPGTCMGSKRSQVSSPCSRKKPRMGQQVLDNFFRSHISTDAHSLNSAAQ [G248V] | -0.998
2 | MRKPRAAVGSGHRKQAASQEGRQKHAKNNSQAKPSACDGLARQPEEVVLQASVSSYHLFRDVAEVTAFRGSLLSWYDQEKRDLPWRRRAEDEMDLDRRAYAVWVSEVMLQQTQVATVINYYTGWMQKWPTLQDLASASLEEVNQLWAGLGYYSRGRRLQEGARKVVEELGGHMPRTAETLQQLLPGVGRYTAGAIASIAFGQATGVVDGNVARVLCRVRAIGADPSSTLVSQQLWGLAQQLVDPARPPDFNQAAMELGATVCTPQRPLCSQCPVESLCRARQRVEQEQLLASGSLSGSPDVEECAPNTGQCHLCLPPSEPWDQTLGVVNFPRKASRKPPREESSATCVLEQPGALGAQILLVQRPNSGLLAGLWEFPSVTWEPSEQLQRKALLQELQRWAGPLPATHLRHLGEVVHTFSHIKLTYQVYGLALEGQTPVTTVPPGARWLTQEEFHTAAVSTAMKKVFRVYQGQQPGTCMGSKRSQVSSPCSRKKPRMGQQVLDNFFRSHISTDAHSLNSAAQ [G248P] | -0.995
3 | MRKPRAAVGSGHRKQAASQEGRQKHAKNNSQAKPSACDGLARQPEEVVLQASVSSYHLFRDVAEVTAFRGSLLSWYDQEKRDLPWRRRAEDEMDLDRRAYAVWVSEVMLQQTQVATVINYYTGWMQKWPTLQDLASASLEEVNQLWAGLGYYSRGRRLQEGARKVVEELGGHMPRTAETLQQLLPGVGRYTAGAIASIAFGQATGVVDGNVARVLCRVRAIGADPSSTLVSQQLWGLAQQLVDPARPSDFNQAAMELGATVCTPQRPLCSQCPVESLCRARQRVEQEQLLASGSLSGSPDVEECAPNTGQCHLCLPPSEPWDQTLGVVNFPRKASRKPPREESSATCVLEQPGALGAQILLVQRPNSGLLAGLWEFPSVTWEPSEQLQRKALLQELQRWAGPLPATHLRHLGEVVHTFSHIKLTYQVYGLALEGQTPVTTVPPGARWLTQEEFHTAAVSTAMKKVFRVYQGQQPGTCMGSKRSQVSSPCSRKKPRMGQQVLDNFFRSHISTDAHSLNSAAQ [G248S] | -0.709
4 | MRKPRAAVGSGHRKQAASQEGRQKHAKNNSQAKPSACDGLARQPEEVVLQASVSSYHLFRDVAEVTAFRGSLLSWYDQEKRDLPWRRRAEDEMDLDRRAYAVWVSEVMLQQTQVATVINYYTGWMQKWPTLQDLASASLEEVNQLWAGLGYYSRGRRLQEGARKVVEELGGHMPRTAETLQQLLPGVGRYTAGAIASIAFGQATGVVDGNVARVLCRVRAIGADPSSTLVSQQLWGLAQQLVDPARPRDFNQAAMELGATVCTPQRPLCSQCPVESLCRARQRVEQEQLLASGSLSGSPDVEECAPNTGQCHLCLPPSEPWDQTLGVVNFPRKASRKPPREESSATCVLEQPGALGAQILLVQRPNSGLLAGLWEFPSVTWEPSEQLQRKALLQELQRWAGPLPATHLRHLGEVVHTFSHIKLTYQVYGLALEGQTPVTTVPPGARWLTQEEFHTAAVSTAMKKVFRVYQGQQPGTCMGSKRSQVSSPCSRKKPRMGQQVLDNFFRSHISTDAHSLNSAAQ [G248R] | -0.738
5 | MRKPRAAVGSGHRKQAASQEGRQKHAKNNSQAKPSACDGLARQPEEVVLQASVSSYHLFRDVAEVTAFRGSLLSWYDQEKRDLPWRRRAEDEMDLDRRAYAVWVSEVMLQQTQVATVINYYTGWMQKWPTLQDLASASLEEVNQLWAGLGYYSRGRRLQEGARKVVEELGGHMPRTAETLQQLLPGVGRYTAGAIASIAFGQATGVVDGNVARVLCRVRAIGADPSSTLVSQQLWGLAQQLVDPARPIDFNQAAMELGATVCTPQRPLCSQCPVESLCRARQRVEQEQLLASGSLSGSPDVEECAPNTGQCHLCLPPSEPWDQTLGVVNFPRKASRKPPREESSATCVLEQPGALGAQILLVQRPNSGLLAGLWEFPSVTWEPSEQLQRKALLQELQRWAGPLPATHLRHLGEVVHTFSHIKLTYQVYGLALEGQTPVTTVPPGARWLTQEEFHTAAVSTAMKKVFRVYQGQQPGTCMGSKRSQVSSPCSRKKPRMGQQVLDNFFRSHISTDAHSLNSAAQ [G248I] | -1.02
6 | MRKPRAAVGSGHRKQAASQEGRQKHAKNNSQAKPSACDGLARQPEEVVLQASVSSYHLFRDVAEVTAFRGSLLSWYDQEKRDLPWRRRAEDEMDLDRRAYAVWVSEVMLQQTQVATVINYYTGWMQKWPTLQDLASASLEEVNQLWAGLGYYSRGRRLQEGARKVVEELGGHMPRTAETLQQLLPGVGRYTAGAIASIAFGQATGVVDGNVARVLCRVRAIGADPSSTLVSQQLWGLAQQLVDPARPQDFNQAAMELGATVCTPQRPLCSQCPVESLCRARQRVEQEQLLASGSLSGSPDVEECAPNTGQCHLCLPPSEPWDQTLGVVNFPRKASRKPPREESSATCVLEQPGALGAQILLVQRPNSGLLAGLWEFPSVTWEPSEQLQRKALLQELQRWAGPLPATHLRHLGEVVHTFSHIKLTYQVYGLALEGQTPVTTVPPGARWLTQEEFHTAAVSTAMKKVFRVYQGQQPGTCMGSKRSQVSSPCSRKKPRMGQQVLDNFFRSHISTDAHSLNSAAQ [G248Q] | -0.882
7 | MRKPRAAVGSGHRKQAASQEGRQKHAKNNSQAKPSACDGLARQPEEVVLQASVSSYHLFRDVAEVTAFRGSLLSWYDQEKRDLPWRRRAEDEMDLDRRAYAVWVSEVMLQQTQVATVINYYTGWMQKWPTLQDLASASLEEVNQLWAGLGYYSRGRRLQEGARKVVEELGGHMPRTAETLQQLLPGVGRYTAGAIASIAFGQATGVVDGNVARVLCRVRAIGADPSSTLVSQQLWGLAQQLVDPARPKDFNQAAMELGATVCTPQRPLCSQCPVESLCRARQRVEQEQLLASGSLSGSPDVEECAPNTGQCHLCLPPSEPWDQTLGVVNFPRKASRKPPREESSATCVLEQPGALGAQILLVQRPNSGLLAGLWEFPSVTWEPSEQLQRKALLQELQRWAGPLPATHLRHLGEVVHTFSHIKLTYQVYGLALEGQTPVTTVPPGARWLTQEEFHTAAVSTAMKKVFRVYQGQQPGTCMGSKRSQVSSPCSRKKPRMGQQVLDNFFRSHISTDAHSLNSAAQ [G248K] | -0.801
8 | MRKPRAAVGSGHRKQAASQEGRQKHAKNNSQAKPSACDGLARQPEEVVLQASVSSYHLFRDVAEVTAFRGSLLSWYDQEKRDLPWRRRAEDEMDLDRRAYAVWVSEVMLQQTQVATVINYYTGWMQKWPTLQDLASASLEEVNQLWAGLGYYSRGRRLQEGARKVVEELGGHMPRTAETLQQLLPGVGRYTAGAIASIAFGQATGVVDGNVARVLCRVRAIGADPSSTLVSQQLWGLAQQLVDPARPLDFNQAAMELGATVCTPQRPLCSQCPVESLCRARQRVEQEQLLASGSLSGSPDVEECAPNTGQCHLCLPPSEPWDQTLGVVNFPRKASRKPPREESSATCVLEQPGALGAQILLVQRPNSGLLAGLWEFPSVTWEPSEQLQRKALLQELQRWAGPLPATHLRHLGEVVHTFSHIKLTYQVYGLALEGQTPVTTVPPGARWLTQEEFHTAAVSTAMKKVFRVYQGQQPGTCMGSKRSQVSSPCSRKKPRMGQQVLDNFFRSHISTDAHSLNSAAQ [G248L] | -1.01
9 | MRKPRAAVGSGHRKQAASQEGRQKHAKNNSQAKPSACDGLARQPEEVVLQASVSSYHLFRDVAEVTAFRGSLLSWYDQEKRDLPWRRRAEDEMDLDRRAYAVWVSEVMLQQTQVATVINYYTGWMQKWPTLQDLASASLEEVNQLWAGLGYYSRGRRLQEGARKVVEELGGHMPRTAETLQQLLPGVGRYTAGAIASIAFGQATGVVDGNVARVLCRVRAIGADPSSTLVSQQLWGLAQQLVDPARPWDFNQAAMELGATVCTPQRPLCSQCPVESLCRARQRVEQEQLLASGSLSGSPDVEECAPNTGQCHLCLPPSEPWDQTLGVVNFPRKASRKPPREESSATCVLEQPGALGAQILLVQRPNSGLLAGLWEFPSVTWEPSEQLQRKALLQELQRWAGPLPATHLRHLGEVVHTFSHIKLTYQVYGLALEGQTPVTTVPPGARWLTQEEFHTAAVSTAMKKVFRVYQGQQPGTCMGSKRSQVSSPCSRKKPRMGQQVLDNFFRSHISTDAHSLNSAAQ [G248W] | -0.937
10 | MRKPRAAVGSGHRKQAASQEGRQKHAKNNSQAKPSACDGLARQPEEVVLQASVSSYHLFRDVAEVTAFRGSLLSWYDQEKRDLPWRRRAEDEMDLDRRAYAVWVSEVMLQQTQVATVINYYTGWMQKWPTLQDLASASLEEVNQLWAGLGYYSRGRRLQEGARKVVEELGGHMPRTAETLQQLLPGVGRYTAGAIASIAFGQATGVVDGNVARVLCRVRAIGADPSSTLVSQQLWGLAQQLVDPARPMDFNQAAMELGATVCTPQRPLCSQCPVESLCRARQRVEQEQLLASGSLSGSPDVEECAPNTGQCHLCLPPSEPWDQTLGVVNFPRKASRKPPREESSATCVLEQPGALGAQILLVQRPNSGLLAGLWEFPSVTWEPSEQLQRKALLQELQRWAGPLPATHLRHLGEVVHTFSHIKLTYQVYGLALEGQTPVTTVPPGARWLTQEEFHTAAVSTAMKKVFRVYQGQQPGTCMGSKRSQVSSPCSRKKPRMGQQVLDNFFRSHISTDAHSLNSAAQ [G248M] | -0.879
11 | MRKPRAAVGSGHRKQAASQEGRQKHAKNNSQAKPSACDGLARQPEEVVLQASVSSYHLFRDVAEVTAFRGSLLSWYDQEKRDLPWRRRAEDEMDLDRRAYAVWVSEVMLQQTQVATVINYYTGWMQKWPTLQDLASASLEEVNQLWAGLGYYSRGRRLQEGARKVVEELGGHMPRTAETLQQLLPGVGRYTAGAIASIAFGQATGVVDGNVARVLCRVRAIGADPSSTLVSQQLWGLAQQLVDPARPTDFNQAAMELGATVCTPQRPLCSQCPVESLCRARQRVEQEQLLASGSLSGSPDVEECAPNTGQCHLCLPPSEPWDQTLGVVNFPRKASRKPPREESSATCVLEQPGALGAQILLVQRPNSGLLAGLWEFPSVTWEPSEQLQRKALLQELQRWAGPLPATHLRHLGEVVHTFSHIKLTYQVYGLALEGQTPVTTVPPGARWLTQEEFHTAAVSTAMKKVFRVYQGQQPGTCMGSKRSQVSSPCSRKKPRMGQQVLDNFFRSHISTDAHSLNSAAQ [G248T] | -0.939
12 | MRKPRAAVGSGHRKQAASQEGRQKHAKNNSQAKPSACDGLARQPEEVVLQASVSSYHLFRDVAEVTAFRGSLLSWYDQEKRDLPWRRRAEDEMDLDRRAYAVWVSEVMLQQTQVATVINYYTGWMQKWPTLQDLASASLEEVNQLWAGLGYYSRGRRLQEGARKVVEELGGHMPRTAETLQQLLPGVGRYTAGAIASIAFGQATGVVDGNVARVLCRVRAIGADPSSTLVSQQLWGLAQQLVDPARPNDFNQAAMELGATVCTPQRPLCSQCPVESLCRARQRVEQEQLLASGSLSGSPDVEECAPNTGQCHLCLPPSEPWDQTLGVVNFPRKASRKPPREESSATCVLEQPGALGAQILLVQRPNSGLLAGLWEFPSVTWEPSEQLQRKALLQELQRWAGPLPATHLRHLGEVVHTFSHIKLTYQVYGLALEGQTPVTTVPPGARWLTQEEFHTAAVSTAMKKVFRVYQGQQPGTCMGSKRSQVSSPCSRKKPRMGQQVLDNFFRSHISTDAHSLNSAAQ [G248N] | -0.871
